Assay results reported in PMC5882645, “NMR Structure, Dynamics and Interactions of the Integrin β2 Cytoplasmic Tail with Filamin Domain IgFLNa21” (Scientific Reports, 2018).
One block for each binder: values may come before it. No end group written: not given here.

Experiments:
[1] = molecular target: T1, IgFLNa21 domain of filamin A (Gly2236-Ser2329) (UniProt P21333 2236-2329); experiment: NMR titration; 15N-1H HSQC of IgFLNa21 (100 μM) with sequential additions of peptide at 1:0, 1:1, 1:2 and 1:3 ratios; 298 K; 25 mM sodium phosphate, 5 mM NaCl, 2 mM DTT, 10% D2O, pH 6.5; settings: both partners purified
T1 construct: filamin A, Ig-like repeat 21 (IgFLNa21), residues Gly2236-Ser2329; The same range also stands as the C-terminal part of the hybrid chain m5 (cloned in pET14b); the rows on the hybrid use m1 for this domain; also called IgFLNa21 filamin; wild-type IgFLNa21; source: E. coli rosetta, synthetic gene in pET24a, 15N/13C-labelled, purified (Ni-NTA, size-exclusion chromatography)
T1 sequence (looked up): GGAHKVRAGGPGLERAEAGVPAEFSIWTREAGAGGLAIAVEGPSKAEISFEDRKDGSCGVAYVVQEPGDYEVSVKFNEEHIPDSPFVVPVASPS

[2] = molecular target: T1, IgFLNa21 domain of filamin A …; experiment: NMR structure; solution structure of the hybrid chain (β2 CT 752-763 joined to IgFLNa21 by the linker …), 300 μM, 298 K; CYANA, refined by X-plor-NIH with explicit water; settings: both partners purified

binding result [1]: binds
B1: Synthetic integrin full-length β2-CT (residues 724-769) (peptide, UniProt P05107 724-769, looked up)
chain: KALIHLSDLREYRRFEKEKLKSQWNNDNPLFKSATTTVMNPKFAES
notes: integrin β2 cytoplasmic tail, residues 724-769; also called full length integrin β2 CT; integrin β2 cytoplasmic tail; source: synthetic peptide, bought: GLBioChem (Shanghai), further purified by reverse phase HPLC

binding result [2]: binds
B2: C-terminal filamin-binding region (P752-N763) of integrin β2 CT, as it stands in the hybrid IgFLNa21 (peptide)
chain: PLFKSATTTVMN
modifications: also: fused via GASGSGASGS linker to IgFLNa21 N-terminus
notes: also called β2 CT peptide; β2 CT part of hybrid IgFLNa21; source: E. coli rosetta, purified (Ni-NTA, size-exclusion chromatography) as the N-terminal part of the hybrid chain
